Assay results taken from patent US20150203577A1 (Chugai, published 2015).
Numbering of substitutions follows the chain as printed.

T1: mouse FcγRII extracellular domain with C-terminal His tag (mouse, UniProt P08101 30-210)
T1 construct: Made on the basis of NCBI NP-034317.1; also called mFcγRII; mFcgRII
T1 sequence: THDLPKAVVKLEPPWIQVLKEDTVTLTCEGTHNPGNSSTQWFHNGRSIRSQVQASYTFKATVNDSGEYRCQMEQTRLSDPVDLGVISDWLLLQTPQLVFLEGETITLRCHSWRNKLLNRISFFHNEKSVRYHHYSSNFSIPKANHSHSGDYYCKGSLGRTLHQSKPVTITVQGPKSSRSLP

T2: mouse FcγRIII extracellular domain with C-terminal His tag (mouse, UniProt P08508 31-215)
T2 construct: Made on the basis of NCBI NP-034318.2; also called mFcγRIII; mFcgRIII
T2 chain: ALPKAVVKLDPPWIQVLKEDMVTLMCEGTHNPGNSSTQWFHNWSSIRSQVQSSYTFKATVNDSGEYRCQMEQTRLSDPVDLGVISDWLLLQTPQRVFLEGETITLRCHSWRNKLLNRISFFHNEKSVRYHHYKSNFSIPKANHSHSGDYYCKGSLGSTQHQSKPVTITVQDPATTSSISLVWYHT

B1: H237-MB400/MRAL-k0 (antibody, mouse IgG1, kappa)
heavy: QVQLQESGPGLVKPSETLSLTCAVSGHSISHDHAWSWVRQPPGEGLEWIGFISYSGITNYNPSLQGRVTISRDNSKNTLYLQMNSLRAEDTAVYYCARSLARTTAMDYWGEGTLVTVSSAKTTPPSVYPLAPGSAAQTNSMVTLGCLVKGYFPEPVTVTWNSGSLSSGVHTFPAVLQSDLYTLSSSVTVPSSTWPSETVTCNVAHPASSTKVDKKIVPRDCGCKPCICEWNEVEDVFIFPPKPKDVLTITLTPKVTCVVVDISKDDPEVQFSWFVDDVEVHTAQTQPREEQFNSTFRSVSELPIMHQDWLNGKEFKCRVNSAAFPAPIEKTISKTKGRPKAPQVYTIPPPKEQMAKDKVSLTCMITDFFPEDITVEWQWNGQPAENYKNTQPIMDTDGSYFVYSKLNVQKSNWEAGNTFTCSVLHEGLHNHHTEKSLSHSPGK
light: not shown
notes: copies: 2 + 2
B2: H237-MB424/MRAL-k0 (antibody, mouse IgG1, kappa)
heavy: B1 heavy with E229D, W230P, N231A
light: not shown
notes: copies: 2 + 2
B3: H237-MB406/MRAL-k0 (antibody, mouse IgG1, kappa)
heavy: B1 heavy with E229P, W230A, N231Y
light: not shown
notes: copies: 2 + 2
B4: H237-MB409/MRAL-k0 (antibody, mouse IgG1, kappa)
heavy: B1 heavy with E229D, W230V, N231Y
light: not shown
notes: copies: 2 + 2
B5: H237-MB405/MRAL-k0 (antibody, mouse IgG1, kappa)
heavy: B1 heavy with E229I, W230A, N231Y
light: not shown
notes: copies: 2 + 2
B6: H237-MB420/MRAL-k0 (antibody, mouse IgG1, kappa)
heavy: B1 heavy with E229I, W230N, N231Y
light: not shown
notes: copies: 2 + 2
B7: H237-MB402/MRAL-k0 (antibody, mouse IgG1, kappa)
heavy: B1 heavy with N231Y
light: not shown
notes: copies: 2 + 2
B8: H237-MB411/MRAL-k0 (antibody, mouse IgG1, kappa)
heavy: B1 heavy with E229P, W230V, N231Y
light: not shown
notes: copies: 2 + 2
B9: H237-MB404/MRAL-k0 (antibody, mouse IgG1, kappa)
heavy: B1 heavy with E229D, W230A, N231Y
light: not shown
notes: also called M8404; copies: 2 + 2
B10: H237-MB421/MRAL-k0 (antibody, mouse IgG1, kappa)
heavy: B1 heavy with E229P, W230N, N231Y
light: not shown
notes: copies: 2 + 2
B11: H237-MB407/MRAL-k0 (antibody, mouse IgG1, kappa)
heavy: B1 heavy with E229Q, W230A, N231Y
light: not shown
notes: copies: 2 + 2
B12: H237-MB401/MRAL-k0 (antibody, mouse IgG1, kappa)
heavy: B1 heavy with N231W
light: not shown
notes: copies: 2 + 2
B13: H237-MB423/MRAL-k0 (antibody, mouse IgG1, kappa)
heavy: B1 heavy with E229T, W230N, N231Y
light: not shown
notes: copies: 2 + 2
B14: H237-MB414/MRAL-k0 (antibody, mouse IgG1, kappa)
heavy: B1 heavy with E229D, W230D, N231Y
light: not shown
notes: copies: 2 + 2
B15: H237-MB419/MRAL-k0 (antibody, mouse IgG1, kappa)
heavy: B1 heavy with E229D, W230N, N231Y
light: not shown
notes: copies: 2 + 2
B16: H237-MB412/MRAL-k0 (antibody, mouse IgG1, kappa)
heavy: B1 heavy with E229Q, W230V, N231Y
light: not shown
notes: copies: 2 + 2
B17: H237-MB413/MRAL-k0 (antibody, mouse IgG1, kappa)
heavy: B1 heavy with E229T, W230V, N231Y
light: not shown
notes: copies: 2 + 2
B18: H237-MB422/MRAL-k0 (antibody, mouse IgG1, kappa)
heavy: B1 heavy with E229Q, W230N, N231Y
light: not shown
notes: copies: 2 + 2
B19: H237-MB415/MRAL-k0 (antibody, mouse IgG1, kappa)
heavy: B1 heavy with E229I, W230D, N231Y
light: not shown
notes: copies: 2 + 2
B20: H237-MB416/MRAL-k0 (antibody, mouse IgG1, kappa)
heavy: B1 heavy with E229P, W230D, N231Y
light: not shown
notes: copies: 2 + 2
B21: H237-MB408/MRAL-k0 (antibody, mouse IgG1, kappa)
heavy: B1 heavy with E229T, W230A, N231Y
light: not shown
notes: copies: 2 + 2
B22: H237-MB417/MRAL-k0 (antibody, mouse IgG1, kappa)
heavy: B1 heavy with E229Q, W230D, N231Y
light: not shown
notes: copies: 2 + 2
B23: H237-MB418/MRAL-k0 (antibody, mouse IgG1, kappa)
heavy: B1 heavy with E229T, W230D, N231Y
light: not shown
notes: copies: 2 + 2
B24: H237-MB426/MRAL-k0 (antibody)
heavy: B1 heavy with E229P, W230P, N231A
light: not shown
notes: copies: 2 + 2

Columns and labels:
[1] = biological target: T1, mouse FcγRII extracellular domain with …; assay: SPR Biacore T200
Experimental: (§1) Each altered antibody was analyzed for its interaction with each Fcγ receptor prepared above using Biacore T100 (GE Healthcare Japan Corp.), Biacore T200 (GE Healthcare Japan Corp.), Biacore A100, or Biacore 4000. The running buffer used was HBS-EP+ (GE Healthcare Japan Corp.). The assay temperature was set to 25° C. The sensor chips used were chips prepared by immobilizing Protein L (ACTIGEN or BioVision) onto Series S Sensor Chip CM5 (GE Healthcare Japan Corp.) or Series S Sensor Chip CM4 (GE Healthcare Japan Corp.) by the amine coupling method.
(§2) In order to calculate the KD value of each altered antibody for FcγR, kinetic analysis was conducted according to the following method: first, the antibody of interest was captured onto any of these chips and allowed to interact with mFcγR diluted with a running buffer. For the obtained sensorgram, the assay results were globally fit into the 1:1 Langmuir binding model using Biacore Evaluation Software to calculate an association rate constant ka (L/mol/s) and a dissociation rate constant kd (1/s). From these values, the dissociation constant KD (mol/L) was calculated.

[2] = biological target: T2, mouse FcγRIII extracellular domain with …; assay: SPR Biacore T200
Experimental: as §1, §2

[3] = biological target: T1, mouse FcγRII extracellular domain with …; assay: SPR Biacore T200; KD mFcγRIII / KD mFcγRII
Experimental: as §1, §2

Binder | relative mFcγRII-binding activity (mIgG1 = 1) [1] | relative mFcγRIII-binding activity (mIgG1 = 1) [2] | relative I/A (mFcγRII selectivity) (mIgG1 = 1) [3] | Kd [1] [nM] | Kd [2] [nM] | I/A (mFcγRII selectivity) [3]
B1 | 81.7 | 5.5 | 15 | – | – | –
B2 | 104 | 5.1 | 20.4 | – | – | –
B3 | 191 | 6.5 | 29.6 | – | – | –
B4 | 192 | 10.7 | 18 | – | – | –
B5 | 146 | 8 | 18.2 | – | – | –
B6 | 124 | 7.1 | 17.5 | – | – | –
B7 | 208 | 12 | 17.4 | 1.01 | 23.6 | 23.3
B8 | 132 | 8.1 | 16.4 | – | – | –
B9 | 236 | 8.6 | 27.6 | 0.891 | 33 | 37
B10 | 178 | 9 | 19.9 | – | – | –
B11 | 164 | 9.8 | 16.9 | – | – | –
B12 | 162 | 6.9 | 23.7 | – | – | –
B13 | 143 | 9.2 | 15.5 | – | – | –
B14 | 189 | 8.1 | 23.6 | – | – | –
B15 | 216 | 11.6 | 18.6 | 0.974 | 24.3 | 25
B16 | 113 | 8.3 | 13.7 | – | – | –
B17 | 108 | 11.9 | 9.1 | – | – | –
B18 | 144 | 8.9 | 16.3 | – | – | –
B19 | 159 | 9.1 | 17.5 | – | – | –
B20 | 189 | 6.3 | 30.2 | – | – | –
B21 | 163 | 13.1 | 12.5 | – | – | –
B22 | 190 | 10.7 | 17.8 | – | – | –
B23 | 262 | 20 | 13.1 | 0.802 | 14.1 | 17.6
B24 | 112 | 4.4 | 25.2 | – | – | –
